Source: patent US20240269235A1 (Gilead, published 2024)

T1: trimeric murine IL-2 receptor (IL-2Rα, IL-2Rβ, and IL-2Rγ) on CTLL-2 cells (murine, UniProt P01590 22-268; P16297 27-539; P34902 23-369)
T1 sequence (looked up) 1: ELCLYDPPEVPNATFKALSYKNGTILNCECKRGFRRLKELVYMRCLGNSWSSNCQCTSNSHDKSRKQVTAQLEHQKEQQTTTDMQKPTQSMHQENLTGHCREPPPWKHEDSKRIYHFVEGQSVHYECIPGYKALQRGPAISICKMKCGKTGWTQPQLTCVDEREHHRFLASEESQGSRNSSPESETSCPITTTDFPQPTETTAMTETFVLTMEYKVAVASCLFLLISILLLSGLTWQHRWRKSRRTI
T1 sequence (looked up) 2: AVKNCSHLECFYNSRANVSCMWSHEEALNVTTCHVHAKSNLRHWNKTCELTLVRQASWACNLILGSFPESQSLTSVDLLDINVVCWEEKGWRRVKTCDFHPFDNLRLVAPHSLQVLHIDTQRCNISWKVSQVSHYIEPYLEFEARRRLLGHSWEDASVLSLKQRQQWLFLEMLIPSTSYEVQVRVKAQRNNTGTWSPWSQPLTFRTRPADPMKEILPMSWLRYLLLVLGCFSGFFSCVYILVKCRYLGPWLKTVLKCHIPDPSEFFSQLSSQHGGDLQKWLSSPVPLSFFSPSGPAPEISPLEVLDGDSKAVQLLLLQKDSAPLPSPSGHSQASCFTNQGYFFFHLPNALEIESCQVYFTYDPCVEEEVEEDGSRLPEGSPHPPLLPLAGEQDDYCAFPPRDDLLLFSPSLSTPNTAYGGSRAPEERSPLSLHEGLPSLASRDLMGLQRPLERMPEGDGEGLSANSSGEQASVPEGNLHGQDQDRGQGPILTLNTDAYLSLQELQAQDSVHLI
T1 sequence (looked up) 3: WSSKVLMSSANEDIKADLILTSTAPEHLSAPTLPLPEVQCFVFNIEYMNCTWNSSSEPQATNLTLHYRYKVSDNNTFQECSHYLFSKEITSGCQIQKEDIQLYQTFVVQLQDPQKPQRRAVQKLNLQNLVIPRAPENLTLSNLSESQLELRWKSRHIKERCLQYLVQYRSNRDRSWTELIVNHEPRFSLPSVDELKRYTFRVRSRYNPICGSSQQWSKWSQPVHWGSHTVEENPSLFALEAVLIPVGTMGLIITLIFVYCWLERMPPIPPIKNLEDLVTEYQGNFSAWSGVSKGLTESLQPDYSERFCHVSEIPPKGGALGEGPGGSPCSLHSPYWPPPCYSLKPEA

T2: IL-2Rα (recombinant IL-2 receptor α, R&D Systems Cat #: 223-2A/CF), biotinylated (human, UniProt P01589 22-213, limits assumed, biotinylated using sulfo-NHS-LC-LC-Biotin)
T2 construct: Bought reagent; also used here as the IL-2Rα partner of the in-silico analysis of PDB 2B5I (another construct); also called IL-2RA; CD25
T2 sequence (looked up): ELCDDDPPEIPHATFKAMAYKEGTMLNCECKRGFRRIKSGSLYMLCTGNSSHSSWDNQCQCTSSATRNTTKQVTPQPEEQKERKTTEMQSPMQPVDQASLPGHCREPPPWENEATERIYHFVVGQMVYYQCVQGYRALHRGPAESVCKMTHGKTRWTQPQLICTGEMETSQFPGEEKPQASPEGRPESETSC

T3: IL-2Rβ (recombinant IL-2 receptor β, R&D Systems Cat #:224-2B-025/CF), biotinylated (UniProt P14784 27-239, limits assumed, biotinylated using sulfo-NHS-LC-LC-Biotin)
T3 construct: Bought reagent; also called IL-2RB; CD122
T3 sequence (looked up): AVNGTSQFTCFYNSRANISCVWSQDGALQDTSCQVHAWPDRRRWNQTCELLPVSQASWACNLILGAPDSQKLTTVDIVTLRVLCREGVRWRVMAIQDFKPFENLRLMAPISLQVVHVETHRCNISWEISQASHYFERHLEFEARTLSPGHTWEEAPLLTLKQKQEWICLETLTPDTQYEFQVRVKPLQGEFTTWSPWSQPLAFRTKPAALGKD

T4: human IL-2Rα on Treg cells (CD3+, CD4+, CD25hi, FoxP3+) of human PBMC (human, UniProt P01589 22-272)
T4 sequence (looked up): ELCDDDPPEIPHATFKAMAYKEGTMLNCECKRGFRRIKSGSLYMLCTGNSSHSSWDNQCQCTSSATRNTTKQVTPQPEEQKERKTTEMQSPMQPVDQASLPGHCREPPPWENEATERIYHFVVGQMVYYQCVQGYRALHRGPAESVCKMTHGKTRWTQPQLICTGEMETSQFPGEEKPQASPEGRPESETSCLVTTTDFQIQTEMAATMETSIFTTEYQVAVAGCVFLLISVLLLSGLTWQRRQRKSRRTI


Key:
[1] = target: T1, trimeric murine IL-2 receptor (IL-2Rα, …); assay: cell-based or functional assay
[2] = target: T2, IL-2Rα (recombinant IL-2 receptor α, …); assay: SPR (Biacore), C1 or CM5 chip, biotinylated receptor on neutravidin
Source text: (§1) Data for binding of Fc-IL-2 variant fusion proteins to IL-2Rα, IL-2Rβ and IL-2Rβγ heterodimer were collected on a Biacore platform using either C1 or CM5 chips. Neutravidin was immobilized using standard amine coupling methods and used to capture biotinylated receptors. Commercially sourced IL-2Rα (R&D Systems Cat #: 223-2A/CF) and IL-2Rβ receptors (R&D Systems Cat #:224-2B-025/CF) were biotinylated using sulfo-NHS-LC-LC-Biotin, desalted, and then captured on the neutravidin surfaces. […] Distinct purification tags were appended to the C-terminus of each chain. A FLAG epitope tag ([…]; SEQ ID NO: 257) was added at the C-terminus of IL-2Rβ subunit, followed by C-terminal Hiss tag ([…]; SEQ ID NO: 258). An AviTag™ ([…]; SEQ ID NO: 259) motif on the IL-2Rγ subunit allowed for site-specific biotinylation of the heterodimer.
(§2) Fc IL 2 fusion protein variants, Fc protein, and Proleukin were injected at various concentrations over these surfaces. Kinetic data obtained from these injections was used to extract kₒₙ and koff to calculate KD (KD=koff/kₒₙ). Experiments were run at 25° C. in HBS-EP+ running buffer (10 mM HEPES, 150 mM NaCl, 3 mM EDTA, 0.05% Tween20, pH 7.4 with 0.1 mg/ml BSA). Data shown in Table 5 for Fc IL-2 fusion protein variants binding to the indicated IL-2R surfaces were derived from the global fitting of data obtained from 2-5 independent surfaces.

[3] = target: T3, IL-2Rβ (recombinant IL-2 receptor β, …); assay: as above
Source text: as §1, §2

[4] = target: T4, human IL-2Rα on Treg cells (CD3+, CD4+, …); assay: cell-based or functional assay
[5] = target: T5, IL-2Rβγ heterodimer, custom biotinylated Fc fusion protein (human IL-2Rβ 27-240-Fc-FLAG / human IL-2Rγ … (human, site-specific biotinylation at the AviTag)); assay: SPR (Biacore), C1 or CM5 chip, biotinylated receptor on neutravidin
T5 construct: Extracellular regions fused to IgG1 knob-in-hole Fc subunits with tags; also called IL-2 receptor βγ heterodimer; Fc-IL-2Rβγ
T5 sequence (chain, as listed by the source limits assumed): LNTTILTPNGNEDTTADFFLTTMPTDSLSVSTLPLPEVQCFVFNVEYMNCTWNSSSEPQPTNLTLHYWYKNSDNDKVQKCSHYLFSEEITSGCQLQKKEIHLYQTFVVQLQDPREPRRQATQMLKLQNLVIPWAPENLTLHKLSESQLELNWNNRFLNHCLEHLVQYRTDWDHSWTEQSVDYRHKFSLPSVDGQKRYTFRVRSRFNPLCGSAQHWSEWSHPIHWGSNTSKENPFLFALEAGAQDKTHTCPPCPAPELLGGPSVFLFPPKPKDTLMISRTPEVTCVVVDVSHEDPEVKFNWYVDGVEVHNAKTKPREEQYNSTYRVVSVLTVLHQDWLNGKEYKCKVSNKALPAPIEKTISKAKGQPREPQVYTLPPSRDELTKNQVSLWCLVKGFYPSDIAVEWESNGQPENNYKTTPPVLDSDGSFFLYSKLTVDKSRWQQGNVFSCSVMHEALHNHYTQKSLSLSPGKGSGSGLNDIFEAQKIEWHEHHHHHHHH
Source text: as §1, §2

STAT5 activation of CTLL-2 cells, EC50 [1] | Kd [2] | Kd [3] | Treg EC50, STAT5 activation (PBMC STAT5 assay) [4] | binding result [5] | binding result [2] | binding result [3] | Binder
0.1 nM | 120 nM | 8000 nM | < 0.001 nM |  |  |  | Fc-IL-2v heterodimer 88.46 (hIL-2v_Δ1-5_Y45A_C125S) (Fc fusion, hIgG4 knob-in-hole Fc heterodimer, one IL-2v on the knob chain) chain 1: ESKYGPPCPPCPAPEAAGGPSVFLFPPKPKDTLMISRTPEVTCVVVDVSQEDPEVQFNWYVDGVEVHNAKTKPREEQFNSTYRVVSVLTVLHQDWLNGKEYKCKVSNKGLPSSIEKTISKAKGQPREPQVYTLPPSQEEMTKNQVSLWCLVKGFYPSDIAVEWESNGQPENNYKTTPPVLDSDGSFFLYSRLTVDKSRWQEGNVFSCSVMHEALHNHYTQKSLSLSLGGGGGSGGGGSGGGGSGGGGSSTKKTQLQLEHLLLDLQMILNGINNYKNPKLTRMLTFKFAMPKKATELKHLQCLEEELKPLEEVLNLAQSKNFHLRPRDLISNINVIVLELKGSETTFMCEYADETATIVEFLNRWITFSQSIISTLT chain 2: ESKYGPPCPPCPAPEAAGGPSVFLFPPKPKDTLMISRTPEVTCVVVDVSQEDPEVQFNWYVDGVEVHNAKTKPREEQFNSTYRVVSVLTVLHQDWLNGKEYKCKVSNKGLPSSIEKTISKAKGQPREPQVYTLPPSQEEMTKNQVSLSCAVKGFYPSDIAVEWESNGQPENNYKTTPPVLDSDGSFFLVSRLTVDKSRWQEGNVFSCSVMHEALHNRFTQKSLSLSLGK
 |  |  |  | no binding | no binding | no binding | Fc heterodimer without a fused IL-2 moiety (heterodimer name: 260:261) (other, negative control; also called control Fc protein with no IL-2 fusion) chain 1: ESKYGPPCPPCPAPEAAGGPSVFLFPPKPKDTLMISRTPEVTCVVVDVSQEDPEVQFNWYVDGVEVHNAKTKPREEQFNSTYRVVSVLTVLHQDWLNGKEYKCKVSNKGLPSSIEKTISKAKGQPREPQVYTLPPSQEEMTKNQVSLWCLVKGFYPSDIAVEWESNGQPENNYKTTPPVLDSDGSFFLYSRLTVDKSRWQEGNVFSCSVMHEALHNHYTQKSLSLSLGK chain 2: ESKYGPPCPPCPAPEAAGGPSVFLFPPKPKDTLMISRTPEVTCVVVDVSQEDPEVQFNWYVDGVEVHNAKTKPREEQFNSTYRVVSVLTVLHQDWLNGKEYKCKVSNKGLPSSIEKTISKAKGQPREPQVYTLPPSQEEMTKNQVSLSCAVKGFYPSDIAVEWESNGQPENNYKTTPPVLDSDGSFFLVSRLTVDKSRWQEGNVFSCSVMHEALHNRFTQKSLSLSLGK
0.002 nM | 21 nM | 8200 nM | < 0.001 nM |  |  |  | Fc-IL-2v heterodimer 93.46 (hIL-2v_Δ1-5_Q74G_C125S) (Fc fusion, hIgG4 knob-in-hole Fc heterodimer, one IL-2v on the knob chain) chain 1: ESKYGPPCPPCPAPEAAGGPSVFLFPPKPKDTLMISRTPEVTCVVVDVSQEDPEVQFNWYVDGVEVHNAKTKPREEQFNSTYRVVSVLTVLHQDWLNGKEYKCKVSNKGLPSSIEKTISKAKGQPREPQVYTLPPSQEEMTKNQVSLWCLVKGFYPSDIAVEWESNGQPENNYKTTPPVLDSDGSFFLYSRLTVDKSRWQEGNVFSCSVMHEALHNHYTQKSLSLSLGGGGGSGGGGSGGGGSGGGGSSTKKTQLQLEHLLLDLQMILNGINNYKNPKLTRMLTFKFYMPKKATELKHLQCLEEELKPLEEVLNLAGSKNFHLRPRDLISNINVIVLELKGSETTFMCEYADETATIVEFLNRWITFSQSIISTLT chain 2: ESKYGPPCPPCPAPEAAGGPSVFLFPPKPKDTLMISRTPEVTCVVVDVSQEDPEVQFNWYVDGVEVHNAKTKPREEQFNSTYRVVSVLTVLHQDWLNGKEYKCKVSNKGLPSSIEKTISKAKGQPREPQVYTLPPSQEEMTKNQVSLSCAVKGFYPSDIAVEWESNGQPENNYKTTPPVLDSDGSFFLVSRLTVDKSRWQEGNVFSCSVMHEALHNRFTQKSLSLSLGK
0.7 nM | 503 nM | 8000 nM | < 0.001 nM |  |  |  | Fc-IL-2v heterodimer 92.46 (hIL-2v_Δ1-5_L72G_C125S) (Fc fusion, hIgG4 knob-in-hole Fc heterodimer, one IL-2v on the knob chain) chain 1: ESKYGPPCPPCPAPEAAGGPSVFLFPPKPKDTLMISRTPEVTCVVVDVSQEDPEVQFNWYVDGVEVHNAKTKPREEQFNSTYRVVSVLTVLHQDWLNGKEYKCKVSNKGLPSSIEKTISKAKGQPREPQVYTLPPSQEEMTKNQVSLWCLVKGFYPSDIAVEWESNGQPENNYKTTPPVLDSDGSFFLYSRLTVDKSRWQEGNVFSCSVMHEALHNHYTQKSLSLSLGGGGGSGGGGSGGGGSGGGGSSTKKTQLQLEHLLLDLQMILNGINNYKNPKLTRMLTFKFYMPKKATELKHLQCLEEELKPLEEVLNGAQSKNFHLRPRDLISNINVIVLELKGSETTFMCEYADETATIVEFLNRWITFSQSIISTLT chain 2: ESKYGPPCPPCPAPEAAGGPSVFLFPPKPKDTLMISRTPEVTCVVVDVSQEDPEVQFNWYVDGVEVHNAKTKPREEQFNSTYRVVSVLTVLHQDWLNGKEYKCKVSNKGLPSSIEKTISKAKGQPREPQVYTLPPSQEEMTKNQVSLSCAVKGFYPSDIAVEWESNGQPENNYKTTPPVLDSDGSFFLVSRLTVDKSRWQEGNVFSCSVMHEALHNRFTQKSLSLSLGK
0.001 nM | 32 nM | 5900 nM | < 0.001 nM |  |  |  | Fc-IL-2v heterodimer 91.46 (hIL-2v_Δ1-5_E68A_C125S) (Fc fusion, hIgG4 knob-in-hole Fc heterodimer, one IL-2v on the knob chain) chain 1: ESKYGPPCPPCPAPEAAGGPSVFLFPPKPKDTLMISRTPEVTCVVVDVSQEDPEVQFNWYVDGVEVHNAKTKPREEQFNSTYRVVSVLTVLHQDWLNGKEYKCKVSNKGLPSSIEKTISKAKGQPREPQVYTLPPSQEEMTKNQVSLWCLVKGFYPSDIAVEWESNGQPENNYKTTPPVLDSDGSFFLYSRLTVDKSRWQEGNVFSCSVMHEALHNHYTQKSLSLSLGGGGGSGGGGSGGGGSGGGGSSTKKTQLQLEHLLLDLQMILNGINNYKNPKLTRMLTFKFYMPKKATELKHLQCLEEELKPLEAVLNLAQSKNFHLRPRDLISNINVIVLELKGSETTFMCEYADETATIVEFLNRWITFSQSIISTLT chain 2: ESKYGPPCPPCPAPEAAGGPSVFLFPPKPKDTLMISRTPEVTCVVVDVSQEDPEVQFNWYVDGVEVHNAKTKPREEQFNSTYRVVSVLTVLHQDWLNGKEYKCKVSNKGLPSSIEKTISKAKGQPREPQVYTLPPSQEEMTKNQVSLSCAVKGFYPSDIAVEWESNGQPENNYKTTPPVLDSDGSFFLVSRLTVDKSRWQEGNVFSCSVMHEALHNRFTQKSLSLSLGK
